Laboratory results published in US20150361176A1 (GlaxoSmithKline, published 2015).

B1: DOM23h-803 (VHH, not shown: small tags and cut ends)
VHH: EVQLLESGGGLVQPGGSLRLSCAASGFTFSAGRMWWVRQAPGKGLEWVSAINRDGTRTYYADSVKGRFTISRDNSKNTLYLQMNSLRAEDTAVYYCAKHDDGHGNFDYWGQGTLVTVSS
B2: DOM23h-813 (VHH, not shown: small tags and cut ends)
VHH: EVQLLESGGGLVQPGGSLRLSCAASGSTFTDDRMWWVRQAPGKGLEWVSAIQPDGHTTYYADSVKGRFTISRDNSKNTLYLQMNSLRAEDTAVYYCAEQDVKGSSSFDYWGQGTLVTVSS
B3: DOM23h-802 (VHH, not shown: small tags and cut ends)
VHH: EVQLLESGGGLVQPGGSLRLSCAASGFTFSEGTMWWVRQAPGKGLEWVSAILAAGSNTYYADSVKGRFTISRDNSKNTLYLQMNSLRAEDTAVYYCAKKRQERDGFDYWGQGTLVTVSS
B4: DOM23h-840 (VHH, not shown: small tags and cut ends)
VHH: EVQLLESGGGLVQPGGSLRLSCAASGFTFGDGRMWWVRQAPGKGLEWVSAIEGAGSDTYYADSVKGRFTISRDNSKNTLYLQMNSLRAEDTAVYYCAKQASRNSPFDYWGQGTLVTVSS
B5: DOM23h-842 (VHH, not shown: small tags and cut ends)
VHH: EVQLLESGGGLVQPGGSLRLSCAASGFTFDDSEMAWARQAPGKGLEWVSLIRRNGNATYYADSVKGRFTISRDNSKNTLYLQMNSLRAEDTAVYYCAKVTKDRSVLFDYWGQGTLVTVSS
B6: DOM23h-850 (VHH, not shown: small tags and cut ends)
VHH: EVQLLESGGGLVQPGGSLRLSCAASGFTFDAARMWWARQAPGKGLEWVSAIADIGNTTYYADSVKGRFTISRDNSKNTLYLQMNSLRAEDTAVYYCAKQSGSEDHFDYWGQGTLVTVSS
B7: DOM23h-828 (VHH, not shown: small tags and cut ends)
VHH: EVQLLESGGGLVQPGGSLRLSCAASGFTFMSYRMWWVRQAPGKGLEWVSAISPSGSDTYYADSVKGRFTISRDNSKNTLYLQMNSLRAEDTAVYYCAKQVVEYSRTHKGVFDYWGQGTLVTVSS
B8: DOM23h-830 (VHH, not shown: small tags and cut ends)
VHH: EVQLLESGGGLVQPGGFLRLSCAASGFTFEGYRMWWVRQAPGKGLEWVSAIDSLGDRTYYADSVKGRFTISRDNSKNTLYLQMNSLRAEDTAVYYCAKQGLTHQSPSTFDYWGQGTLVTVSS
B9: DOM23h-815 (VHH, not shown: small tags and cut ends)
VHH: EVQLLESGGGLVQPGGSLRLSCAASGFTFAEDRMWWVRQAPGKGLEWVSAIDPQGQHTYYADSVKGRFTISRDNSKNTLYLQMNSLRAEDTAVYYCAKQSTGSATSDYWGQGTLVTVSS
B10: DOM23h-883 (VHH, not shown: small tags and cut ends)
VHH: EVQLLESGGGLVQPGGSLRLSCAASGFTFVNYRMWWVRQAPGKGLEWVSAISGSGDKTYYADSVKGRFTISRDNSKNTLYLQMNSLRAEDTAVYYCAKHGLSFDYWGQGTLVTVSS
B11: DOM23h-831 (VHH, not shown: small tags and cut ends)
VHH: EVQLLESGGGLVQPGGSLRLSCAASGFTFEAYKMTWVRQAPGKGLEWVSYITPSGGQTYYADSVKGRFTISRDNSKNTLYLQMNSLRAEDTAVYYCAKYGSSFDYWGQGTLVTVSS
B12: DOM23h-903 (VHH, not shown: small tags and cut ends)
VHH: EVQLLESGGGLVQPGGSLRLSCAASGFTFNDMRMWWVRQAPGKGLEWVSVINADGNRTYYADSVKGRFTISRDNSKNTLYLQMNSLRAEDTAVYYCAKDGLPFDYWGQGTLVTVSS

Biological target: human TGF-βRII on cells (SBE-bla HEK 293T cells; A549 cells) (human, UniProt P37173 23-567)
Sequence (P37173 23-567): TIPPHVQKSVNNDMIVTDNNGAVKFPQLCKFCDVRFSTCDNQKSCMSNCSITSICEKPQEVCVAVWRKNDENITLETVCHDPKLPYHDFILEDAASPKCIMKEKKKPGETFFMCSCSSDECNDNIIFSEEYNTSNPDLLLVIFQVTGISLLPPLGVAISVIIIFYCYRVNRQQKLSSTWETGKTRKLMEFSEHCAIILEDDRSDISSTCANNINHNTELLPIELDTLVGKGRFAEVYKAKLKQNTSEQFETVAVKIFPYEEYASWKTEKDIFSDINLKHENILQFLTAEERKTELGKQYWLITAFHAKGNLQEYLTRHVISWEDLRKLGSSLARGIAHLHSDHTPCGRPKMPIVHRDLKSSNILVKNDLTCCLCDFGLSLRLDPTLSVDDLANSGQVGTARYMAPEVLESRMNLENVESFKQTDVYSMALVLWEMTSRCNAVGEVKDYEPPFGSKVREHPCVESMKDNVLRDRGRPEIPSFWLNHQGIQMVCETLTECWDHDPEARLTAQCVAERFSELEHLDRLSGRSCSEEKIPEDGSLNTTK
Test: cell-based or functional assay

Row | Binder | IC50 nM, Mean (SBE-bla HEK 293T cell sensor assay, h2)
1 | B1 | > 11600 nM
2 | B2 | > 9330 nM
3 | B3 | > 11100 nM
4 | B4 | 2920 nM
5 | B5 | 2040 nM
6 | B6 | 5350 nM
7 | B7 | 9900 nM
8 | B8 | 6300 nM
9 | B9 | 7120 nM
10 | B10 | 10100 nM
11 | B11 | > 3130 nM
12 | B12 | 1050 nM
